According to US20240309103A1 (Regeneron, published 2024):
Substitutions are numbered along the chain they refer to.

T1: monkey NPR1 extracellular domain expressed with a C-terminal myc-myc-hexahistidine (mfNPR1-MMH) (monkey, UniProt P16066 33-473 (human entry))
T1 construct: also called monomeric monkey NPR1
T1 chain: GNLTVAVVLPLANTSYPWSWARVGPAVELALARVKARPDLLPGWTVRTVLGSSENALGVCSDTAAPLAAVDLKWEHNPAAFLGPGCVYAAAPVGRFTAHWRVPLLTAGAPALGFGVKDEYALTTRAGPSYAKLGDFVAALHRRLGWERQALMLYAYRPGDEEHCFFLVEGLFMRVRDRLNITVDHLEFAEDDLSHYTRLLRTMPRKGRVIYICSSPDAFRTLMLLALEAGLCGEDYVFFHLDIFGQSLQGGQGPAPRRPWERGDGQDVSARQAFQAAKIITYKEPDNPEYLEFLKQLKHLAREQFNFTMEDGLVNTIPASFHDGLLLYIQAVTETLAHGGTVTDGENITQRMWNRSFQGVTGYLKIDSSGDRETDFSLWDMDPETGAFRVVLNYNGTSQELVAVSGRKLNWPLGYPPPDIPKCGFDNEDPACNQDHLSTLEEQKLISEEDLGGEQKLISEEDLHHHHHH

T2: human NPR1 extracellular domain expressed with a C-terminal mouse IgG2a (hNPR1-mFc) (human)
T2 construct: also called hNPR1-Fc; human NPR1 dimer
T2 chain: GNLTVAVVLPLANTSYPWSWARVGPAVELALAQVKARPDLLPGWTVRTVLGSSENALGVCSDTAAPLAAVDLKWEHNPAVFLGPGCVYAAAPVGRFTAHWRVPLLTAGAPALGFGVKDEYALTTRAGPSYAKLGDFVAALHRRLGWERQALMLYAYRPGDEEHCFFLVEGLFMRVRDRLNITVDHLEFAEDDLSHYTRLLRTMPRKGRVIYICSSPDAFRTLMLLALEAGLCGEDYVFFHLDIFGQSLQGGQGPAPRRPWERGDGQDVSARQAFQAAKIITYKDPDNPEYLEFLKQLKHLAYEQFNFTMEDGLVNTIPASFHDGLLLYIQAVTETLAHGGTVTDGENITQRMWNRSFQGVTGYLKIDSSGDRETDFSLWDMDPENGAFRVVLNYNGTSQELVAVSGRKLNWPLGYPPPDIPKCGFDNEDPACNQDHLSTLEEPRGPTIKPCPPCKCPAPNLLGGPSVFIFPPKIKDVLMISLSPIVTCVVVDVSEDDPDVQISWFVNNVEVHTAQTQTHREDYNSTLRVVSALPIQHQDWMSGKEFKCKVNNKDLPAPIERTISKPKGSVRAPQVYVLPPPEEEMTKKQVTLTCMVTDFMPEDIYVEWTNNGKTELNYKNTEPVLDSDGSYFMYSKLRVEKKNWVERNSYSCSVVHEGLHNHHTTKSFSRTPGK

T3: mouse NPR1 extracellular domain expressed with a C-terminal mouse IgG2a (mNPR1-mFc) (mouse)
T3 chain: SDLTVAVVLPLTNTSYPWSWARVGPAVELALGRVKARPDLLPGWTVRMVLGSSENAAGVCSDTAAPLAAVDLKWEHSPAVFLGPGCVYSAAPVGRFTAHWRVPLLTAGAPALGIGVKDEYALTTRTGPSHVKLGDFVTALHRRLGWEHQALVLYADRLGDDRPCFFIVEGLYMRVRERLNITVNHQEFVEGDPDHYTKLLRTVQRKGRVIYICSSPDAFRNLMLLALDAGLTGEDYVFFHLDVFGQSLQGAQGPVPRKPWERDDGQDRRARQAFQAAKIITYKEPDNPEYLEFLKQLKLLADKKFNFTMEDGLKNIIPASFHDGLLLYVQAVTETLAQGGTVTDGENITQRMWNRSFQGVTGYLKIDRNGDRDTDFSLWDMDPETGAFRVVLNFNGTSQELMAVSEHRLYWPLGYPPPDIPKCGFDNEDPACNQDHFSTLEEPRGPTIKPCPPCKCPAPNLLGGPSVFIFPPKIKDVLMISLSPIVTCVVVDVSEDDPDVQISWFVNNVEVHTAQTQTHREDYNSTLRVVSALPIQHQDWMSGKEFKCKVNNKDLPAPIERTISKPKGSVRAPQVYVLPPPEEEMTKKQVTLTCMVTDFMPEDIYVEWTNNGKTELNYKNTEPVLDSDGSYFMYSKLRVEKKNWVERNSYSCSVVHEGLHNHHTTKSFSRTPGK

B1: mAb25479 (antibody, V domains shown)
VH: QVQLVQSGAEVKKPGASVKVSCKASGYTFTGYYIHWVRQAPGQGLEWMGWINPNSIGTNYAQKFQGRVTLTRDTSISTAYMELSSLRSDDTAVYYCARGGSSSYYYYYYGMDVWGQGTTVTVSS
VL: DIQMTQSPSSLSASVGDRVTITCRASQSIDNYLNWYQQKPGKAPKLLIYVASSLQSGVPSRFSGSGSGTDFTLTISSLQPEDFATYYCQQSYSTPLTFGGGTKVEIK
B2: mAb25497 (antibody, V domains shown)
VH: QVQLVQSGAEVKEPGASVKVSCKASGYTFTDYYIHWVRQAPGQGLEWMGWINLNSGGKNHAQKFQGRVTVTSDTSINTAYIELGRLRGDDTAVYYCSRGGGSHYYYYYHGMDVWGQGTTVTVSS
VL: B1 VL with V19I, Q27H, N31S, V50P, S53T, F83S, T85I
B3: mAb25491 (antibody, V domains shown)
VH: QVQLVQSGAEVMKPGASVKVSCKASGYTFTGYYIHWVRQAPGQGLEWMGWITPNSGATNYAQKFQGRVTLTRDTSISTAYMELTRLKSDDTAVYYCARGGQLEFFYYYYGMDVWGQGTTVTVSS
VL: DIQMTQSPSSLSASAGDRVTITCRASQSIDSYLNWYQQKPGKAPKLLISATSGFQSGVPSRFSGSGSGTDFTLTISSLQPEDFGTYYCQQSYTTPITFGQGTRLEIK
B4: mAb22805 (antibody, V domains shown)
VH: QVQLVESGGGVVQPGRSLRLSCAASGFTFSTYGMHWVRQAPGKGLEWVALIWNDGSNKYYADSVKGRFTISRDNSKNTLDLQMNSLRAEDTAVYYCARLNTRITGTTNLDYWGQGTLVTVSS
VL: DIQMTQSPSSLSASVGDRVTVSCRASQSIANYLNWYQQKPGKAPNLLIYGAYTLQSGVPSRFRGSGSGTDFTLTISSLQPEDFATYYCQQTYSTPPITFGQGTRLEIK

biological target: T4, mouse NPR1 extracellular domain expressed with a C-terminal myc-myc-hexahistidine (mNPR1-MMH) (mouse, UniProt P18293 29-469); test: SPR, mAb captured, 25 C
Method: (§1) Equilibrium dissociation constant (KD) for different NPR1 reagents binding to purified anti-NPR1 monoclonal antibodies (mAbs) were determined using a real-time surface plasmon resonance based Biacore 4000 biosensor. All binding studies were performed in 10 mM HEPES, 150 mM NaCl, 3 mM EDTA, and 0.05% v/v Surfactant Tween-20, pH 7.4 (HBS-ET) running buffer at 25° C. and 37° C. The Biacore CM5 sensor chip surface was first derivatized by amine coupling with either mouse anti-human Fc specific mAb (GE Healthcare, #BR100839) or goat anti-human Fcy specific polyclonal antibody (Jackson ImmunoResearch Laboratories, #BR-1008-39) to capture anti-NPR1 mAbs.

Row | Binder | 100 nM Ag Bound (RU) | binding result
1 | B1 | 0 RU | no binding (tested: 100 nM)
2 | B2 | 0 RU | no binding (tested: 100 nM)
3 | B3 | 0 RU | no binding (tested: 100 nM)
4 | B4 | 0 RU | no binding (tested: 100 nM)

Biological target: T1, monkey NPR1 extracellular domain …
Test: SPR, mAb captured, 25 C
Method: as §1

Row | Binder | 100 nM Ag Bound (RU) | Kd | koff | kon | t½ | binding result
5 | B1 | 41 RU | 246 nM | 0.00682 s⁻¹ | 27700 M⁻¹ s⁻¹ | 1.7 min | –
6 | B2 | 49 RU | 59.8 nM | 0.00226 s⁻¹ | 37800 M⁻¹ s⁻¹ | 5.1 min | –
7 | B3 | 81 RU | 30.5 nM | 0.00128 s⁻¹ | 42000 M⁻¹ s⁻¹ | 9 min | –
8 | B4 | 0 RU | – | – | – | – | no binding (tested: 100 nM)

Biological target: T2, human NPR1 extracellular domain …
Test: SPR, mAb captured, 25 C
Method: as §1

Row | Binder | 100 nM Ag Bound (RU) | Kd | koff | kon | t½ | binding result
9 | B1 | 26 RU | 22.4 nM | 0.000852 s⁻¹ | 38000 M⁻¹ s⁻¹ | 13.6 min | –
10 | B2 | 49 RU | 0.238 nM | 4.83e-05 s⁻¹ | 203000 M⁻¹ s⁻¹ | 239 min | –
11 | B3 | 36 RU | 1.24 nM | 0.000124 s⁻¹ | 101000 M⁻¹ s⁻¹ | 92.8 min | –
12 | B4 | 2 RU | – | – | – | – | no binding (tested: 100 nM)

biological target: T5, human NPR1 extracellular domain expressed with a C-terminal myc-myc-hexahistidine (hNPR1-MMH) (human, UniProt P16066 33-473); test: SPR, mAb captured, 25 C
T5 construct: also called hNPR.mmh; monomeric human NPR1
Method: as §1

Row | Binder | 100 nM Ag Bound (RU) | Kd | koff | kon | t½ | binding result
13 | B1 | 16 RU | 482 nM | 0.00673 s⁻¹ | 14000 M⁻¹ s⁻¹ | 1.7 min | –
14 | B2 | 22 RU | 52.7 nM | 0.00167 s⁻¹ | 31700 M⁻¹ s⁻¹ | 6.9 min | –
15 | B3 | 37 RU | 37.6 nM | 0.000983 s⁻¹ | 26200 M⁻¹ s⁻¹ | 11.7 min | –
16 | B4 | 0 RU | – | – | – | – | no binding (tested: 100 nM)

Biological target: T3, mouse NPR1 extracellular domain …
Test: SPR, Tables 21 to 26
Method: as §1

Row | Binder | binding result
17 | B1 | no binding
18 | B2 | no binding
19 | B3 | no binding
20 | B4 | no binding

biological target: T4, mouse NPR1 extracellular domain …; test: SPR, mAb captured, 37 C
Method: as §1
Target sequence in this assay (P18293 other isoform, or with tags, fused parts or gaps): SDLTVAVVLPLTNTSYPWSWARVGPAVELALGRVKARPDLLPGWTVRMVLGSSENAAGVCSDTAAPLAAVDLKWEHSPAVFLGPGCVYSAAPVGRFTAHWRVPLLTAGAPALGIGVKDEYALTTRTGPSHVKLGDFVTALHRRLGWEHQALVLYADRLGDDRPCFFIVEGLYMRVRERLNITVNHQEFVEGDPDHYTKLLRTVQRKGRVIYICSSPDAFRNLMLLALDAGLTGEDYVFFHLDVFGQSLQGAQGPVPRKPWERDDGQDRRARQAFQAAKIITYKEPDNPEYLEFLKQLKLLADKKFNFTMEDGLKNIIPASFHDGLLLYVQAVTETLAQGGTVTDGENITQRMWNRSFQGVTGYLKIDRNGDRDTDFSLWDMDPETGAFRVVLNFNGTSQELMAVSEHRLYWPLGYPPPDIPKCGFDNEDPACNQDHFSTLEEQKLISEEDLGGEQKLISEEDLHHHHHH

Row | Binder | 100 nM Ag Bound (RU)
21 | B1 | 1 RU
22 | B2 | 0 RU
23 | B3 | 0 RU
24 | B4 | 1 RU

Biological target: T1, monkey NPR1 extracellular domain …
Test: SPR, mAb captured, 37 C
Method: as §1

Row | Binder | 100 nM Ag Bound (RU) | Kd | koff | kon | t½
25 | B1 | 43 RU | 360 nM | 0.0142 s⁻¹ | 39600 M⁻¹ s⁻¹ | 0.8 min
26 | B2 | 69 RU | 139 nM | 0.00384 s⁻¹ | 27700 M⁻¹ s⁻¹ | 3 min
27 | B3 | 106 RU | 78.4 nM | 0.00457 s⁻¹ | 58300 M⁻¹ s⁻¹ | 2.5 min
28 | B4 | 3 RU | – | – | – | –

Biological target: T2, human NPR1 extracellular domain …
Test: SPR, mAb captured, 37 C
Method: as §1

Row | Binder | 100 nM Ag Bound (RU) | Kd | koff | kon | t½
29 | B1 | 47 RU | 41.2 nM | 0.00139 s⁻¹ | 33700 M⁻¹ s⁻¹ | 8.3 min
30 | B2 | 43 RU | 7.31 nM | 0.00031 s⁻¹ | 42300 M⁻¹ s⁻¹ | 37.3 min
31 | B3 | 70 RU | 8.66 nM | 0.000363 s⁻¹ | 41900 M⁻¹ s⁻¹ | 31.8 min
32 | B4 | 8 RU | – | – | – | –

biological target: T5, human NPR1 extracellular domain …; test: SPR, mAb captured, 37 C
Method: as §1
Target sequence in this assay (P16066 other isoform, or with tags, fused parts or gaps): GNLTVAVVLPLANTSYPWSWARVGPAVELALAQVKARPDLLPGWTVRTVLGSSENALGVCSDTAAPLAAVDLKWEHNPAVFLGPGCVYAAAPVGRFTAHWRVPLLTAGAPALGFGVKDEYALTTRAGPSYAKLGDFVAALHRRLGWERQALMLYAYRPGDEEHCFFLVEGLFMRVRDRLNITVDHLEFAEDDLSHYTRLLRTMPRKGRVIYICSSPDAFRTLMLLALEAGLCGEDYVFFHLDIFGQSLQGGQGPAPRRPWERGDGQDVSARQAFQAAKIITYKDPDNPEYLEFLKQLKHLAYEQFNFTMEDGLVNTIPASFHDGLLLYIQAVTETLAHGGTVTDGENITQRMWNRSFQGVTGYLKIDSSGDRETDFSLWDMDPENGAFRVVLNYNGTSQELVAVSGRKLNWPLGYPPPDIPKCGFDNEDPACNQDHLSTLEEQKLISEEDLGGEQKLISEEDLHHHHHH

Row | Binder | 100 nM Ag Bound (RU) | Kd | koff | kon | t½
33 | B1 | 16 RU | 689 nM | 0.0157 s⁻¹ | 22800 M⁻¹ s⁻¹ | 0.7 min
34 | B2 | 31 RU | 139 nM | 0.00258 s⁻¹ | 18600 M⁻¹ s⁻¹ | 4.5 min
35 | B3 | 51 RU | 127 nM | 0.00453 s⁻¹ | 35600 M⁻¹ s⁻¹ | 2.5 min
36 | B4 | 1 RU | – | – | – | –
